Experimental data as given in US20230038638A1, “COMPLEMENT FACTOR I-RELATED COMPOSITIONS AND METHODS” (published 2023).

How the values were obtained:
[1] = target: soluble human C3b (human) (UniProt P01024)
human C4b (human) = target: T1, human C4b (human) (UniProt P0C0L4)
T1 sequence: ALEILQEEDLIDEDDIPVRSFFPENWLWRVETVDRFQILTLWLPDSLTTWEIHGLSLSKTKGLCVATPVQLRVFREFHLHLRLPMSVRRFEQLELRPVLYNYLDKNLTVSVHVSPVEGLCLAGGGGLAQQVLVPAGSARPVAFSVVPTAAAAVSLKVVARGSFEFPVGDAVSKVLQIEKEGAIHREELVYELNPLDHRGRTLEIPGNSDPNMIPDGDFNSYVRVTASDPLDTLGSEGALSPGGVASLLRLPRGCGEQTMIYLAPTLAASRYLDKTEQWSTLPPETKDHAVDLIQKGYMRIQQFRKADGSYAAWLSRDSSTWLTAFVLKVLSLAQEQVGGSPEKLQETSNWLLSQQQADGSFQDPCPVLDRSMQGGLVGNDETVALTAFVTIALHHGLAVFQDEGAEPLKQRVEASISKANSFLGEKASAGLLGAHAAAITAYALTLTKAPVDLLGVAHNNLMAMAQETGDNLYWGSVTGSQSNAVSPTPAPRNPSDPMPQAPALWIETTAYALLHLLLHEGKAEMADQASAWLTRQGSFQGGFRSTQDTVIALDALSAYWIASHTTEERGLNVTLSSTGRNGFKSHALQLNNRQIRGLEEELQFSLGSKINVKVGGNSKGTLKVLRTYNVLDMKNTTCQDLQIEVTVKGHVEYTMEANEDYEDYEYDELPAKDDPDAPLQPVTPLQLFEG

Row | Substance | iC3b Screen Ref Fold (fold of reference) [1] | C4b Screen Ref Fold (fold of reference) (human C4b (human)) | iC3b Screen Ref Fold (fold of CFI-HSA wild type) [1] | C4b Screen Ref Fold (fold of CFI-HSA wild type) (human C4b (human))
1 | CFI-HSA variant P558S; F559L; I560V; Y563H (enzyme) | 1.24 | 0.63 | – | –
2 | CFI-HSA variant P558S; S507A (enzyme) | – | – | -0.04 | 0.08
3 | CFI-HSA variant Q373G (enzyme) | – | – | 0.02 | 0
4 | CFI-HSA variant Q409D (enzyme) | 0.14 | 0.09 | – | –
5 | CFI-HSA variant Q409G (enzyme) | 0.33 | 0.36 | – | –
6 | CFI-HSA variant Q409Y (enzyme) | -0.01 | 0.29 | – | –
7 | CFI-HSA variant R314A (enzyme) | 0.85 | 1.83 | – | –
8 | CFI-HSA variant R388G (enzyme) | – | – | 0.22 | 0.18
9 | CFI-HSA variant R462G (enzyme) | – | – | 0 | 0.25
10 | CFI-HSA variant R557A; N531D; Y403F; K504Y; E457G; E461Q (enzyme) | – | – | 0.42 | 3.51
11 | CFI-HSA variant R557A; N531M; Y403F; K504Y; E457G; E461L (enzyme) | – | – | 0.46 | 3.18
12 | CFI-HSA variant R557A; N531M; Y403F; K504Y; E457G; E461T (enzyme) | – | – | 0.4 | 3.31
13 | CFI-HSA variant R557A; N531M; Y403F; K504Y; E457G; E461V (enzyme) | – | – | 0.46 | 3.17
14 | CFI-HSA variant R557A; N531M; Y403F; K504Y; E457N; E461L (enzyme) | – | – | 0.28 | 2.29
15 | CFI-HSA variant R557A; N531M; Y403F; K504Y; E457N; E461Q (enzyme) | – | – | 0.36 | 3.18
16 | CFI-HSA variant R557A; N531M; Y403F; K504Y; E457N; E461T (enzyme) | – | – | 0.24 | 3.13
17 | CFI-HSA variant R557A; N531M; Y403F; K504Y; E457N; E461V (enzyme) | – | – | 0.36 | 3.2

Row | Substance | iC3b Screen Ref Fold (fold of reference) [1] | C4b Screen Ref Fold (fold of reference) (human C4b (human)) | iC3b Screen Ref Fold (fold of CFI-HSA wild type) [1] | C4b Screen Ref Fold (fold of CFI-HSA wild type) (human C4b (human))
18 | CFI-HSA variant R557A; S507A (enzyme) | – | – | -0.02 | 0.08
19 | CFI-HSA variant T346H (enzyme) | 0.67 | 1.81 | – | –
20 | CFI-HSA variant T346K (enzyme) | 0.96 | 0.57 | – | –
21 | CFI-HSA variant T346K; K504D; E530K (enzyme) | 0.4 | -0.02 | – | –
22 | CFI-HSA variant T346R (enzyme) | 0.95 | 0.54 | – | –
23 | CFI-HSA variant T377G; N422K; D425K; E457G; E461Q; E530F; N531G (enzyme) | – | – | 0.87 | 3.74
24 | CFI-HSA variant T377G; S507A (enzyme) | – | – | -0.01 | 0.05
25 | CFI-HSA variant T377G; Y408M; N422K; E457G; E461Q; E530F; N531G (enzyme) | – | – | 1.15 | 2.93
26 | CFI-HSA variant V390G (enzyme) | 0.35 | 0.5 | – | –
27 | CFI-HSA variant V463G (enzyme) | – | – | 0.09 | 0.08
28 | CFI-HSA variant W375G (enzyme) | – | – | -0.03 | 0.08
29 | CFI-HSA variant W381A (enzyme) | -0.01 | 0.09 | – | –
30 | CFI-HSA variant W381A; P384A (enzyme) | -0.03 | -0.05 | – | –
31 | CFI-HSA variant W381A; ΔP384 (enzyme) | 0.01 | -0.05 | – | –
32 | CFI-HSA variant W381G; P384A; V390G (enzyme) | -0.01 | 0.26 | – | –
33 | CFI-HSA variant W381G; P384G; V390G (enzyme) | -0.02 | 0.12 | – | –
